These results are taken from article PMC6241121, “hnRNPA2 mediated acetylation reduces telomere length in response to mitochondrial dysfunction”.

The data set deals with hnRNPA2 WT (human, UniProt P22626-2 1-341). In words: EMSA; not given in the material. The following applies: protein: recombinant; tags: N-terminal 6xHis (pET28a). For orientation: In EMSA bound probe runs differently from free probe, usually more slowly.
Sequence of hnRNPA2 WT (P22626 other isoform, or with tags, fused parts or gaps): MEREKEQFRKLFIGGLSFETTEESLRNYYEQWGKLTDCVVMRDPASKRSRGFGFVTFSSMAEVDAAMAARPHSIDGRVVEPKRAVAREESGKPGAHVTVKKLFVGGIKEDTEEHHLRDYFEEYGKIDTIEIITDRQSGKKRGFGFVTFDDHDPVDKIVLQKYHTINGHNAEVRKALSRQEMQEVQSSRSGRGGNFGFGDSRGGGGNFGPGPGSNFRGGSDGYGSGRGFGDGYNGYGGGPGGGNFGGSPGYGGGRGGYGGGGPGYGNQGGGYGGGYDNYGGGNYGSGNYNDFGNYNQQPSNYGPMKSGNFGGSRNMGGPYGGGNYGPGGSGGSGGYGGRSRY

As for TTAGGGTTAGGGTTAGGGTTAGGGTTAGGG (ssDNA) [single-stranded telomeric DNA probe], the binding result is “binds”.
